Assay: soluble on expression in E. coli; label from the status in PepcDB or PDB records

Sequence	soluble on expression in E. coli
MDWGMQSRLSWIFNPKTGKTVMLAFDHGYFQGPTIGLERIDINIAPLFEHADVLMCTRGILRSVVPPATNKPVVLRASGANSILAELSNEAVALSMDDAVRLNSCAVAAQVYIGSEYEHQSIKNIIQLVDAGMKVGMPTMAVTGVGKDMVRDQRYFSLATRIAAEMGAQIIKTYYVEKGFERIVAGCPVPIVIAGGKKLPERETLEMCWQAIDQGASGVDMGRNIFQSDHPVAMMKAVQAVVHHNETADRAYELYLSEKQ	not soluble
MGSDKIHHHHHHMETSAPRAGSQVVATTARHSAAYRADPLRVSSRDKLTEMAASSQGNFEGNFESLDLAEFAKKQPWWRKLFGQESGPSAEKYSVATQLFIGGVTGWCTGFIFQKVGKLAATAVGGGFFLLQLANHTGYIKVDWQRVEKDMKKAKEQLKIRKSNQIPTEVRSKAEEVVSFVKKNVLVTGGFFGGFLLGMAS	not soluble
MGSDKIHHHHHHMSAKKNEIRSKLALLQLATELGSISKACGIMGYSRDSYYRFKKQYETAGERGLKNLSRRKPALKNRVSQAVEDQVIEIALDYPNYGQAKVAELLTARGCAISASGVRTIWVRHNLETKKNRLLALHSKLKQDNNLAPSDQVRIEKLYQLDSNDPIFECLYPGDICVQDTFDLGVISPLGQLYQHTFVDGYSQFAIAVIMPERDSASAAEFLEQTVLPWYATAQGLNINTILTDRGSEFFGKKSQQFSDVLSAHNINHIQMRAYNGPVVNGLAARFQDLAYHEFYEPFLKENKAGSLLDLNQQLANWLYDYNHSHAISGRYTLGKTAAEVLKLTKHLSEASSQCS	not soluble
MGSDKIHHHHHHMVKVEIDEGSGFCFGVVTAIHKAEEELAKGVTLYCLGDIVHNSREVERLKEMGLITINHEEFKQLHNAKVLLRAHGEPPETYIIAKENNIEIIDATCPVVLRLQKRIKQEYMQEDLDEKQIVIYGKNGHAEVLGLVGQTTGKAIVIEKLDEARRLDFSKSIRLYSQTTKSLDEFWEIVEYIKEHISPDVTFEYYDTICRQVANRMPNLRKFAASHDLIFFVSGKKSSNGKMLFEECKKVNPNSHLIDSADEIDDSLLPGVNSIGVCGATSTPKWLMEEISEAIKAQIKRQ	not soluble
MGSSHHHHHHSSGLVPRGSHMASMTEQRTKYADSILTTKSPYEATETIRIRLSQVKLLNKDFYLLFKELANLKRNYAQQLRKIIAENEDITKILNAQMIESNVLTPQEMSAFRFNSLGELRNVWDTVIEELKSDLKSSTEYYNTLDQQVVRELKESVENNTSWRESKDLHSKLSKNAASIEHYSKNNENSSHLEEARRQWDQQSPYLFELFETIDYNRLDTLKNCMLRFQTSFSDYLLNTTKECETVMTKFLAFEPQSEIDRFAKDASQYNFQLSSSSKEVVPNNAS	soluble
MDAEQLLKAITPEVYDRLVYAVETGRWPEGTTLSREQRDSCMQAVMLYQSKHNTEAQHMTVAAGGEISFKSKQELKKQFNTDESDIVRVNPNLD	not soluble
MGDEDDDESCAVELRITEANLTGHEEKVSVENFELLKVLGTGAYGKVFLVRKAGGHDAGKLYAMKVLRKAALVQRAKTQEHTRTERSVLELVRQAPFLVTLHYAFQTDAKLHLILDYVSGGEMFTHLYQRQYFKEAEVRVYGGEIVLALEHLHKLGIIYRDLKLENVLLDSEGHIVLTDFGLSKEFLTEEKERTFSFCGTIEYMAPEIIRSKTGHGKAVDWWSLGILLFELLTGASPFTLEGERNTQAEVSRRILKCSPPFPPRIGPVAQDLLQRLLCKDPKKRLGAGPQGAQEVRNHPFFQGLDWVALAARKIPAPFRPQIRSELDVGNFAEEFTRLEPVYSPPGSPPPGDPRIFQGYSFVAPSILFDHNNAVMTDGLEAPGAGDRPGRAAVARSAMMQYELDLREPALGQGSFSVCRRCRQRQSGQEFAVKILSRRLEANTQREVAALRLCQSHPNVVNLHEVHHDQPHTYLVLELLRGGELLEHIRKKRHFSESEASQILRSLVSAVSFMHEEAGVVHRDLKPENILYADDTPGAPVKIIDFGFARLRPQSPGVPMQTPCFTLQYAAPELLAQQGYDESCDLWSLGVILYMMLSGQVPFQGASGQGGQSQAAEIMCKIREGRFSLDGEAWQGVSEEAKELVRGLLTVDPAKRLKLEGLRGSSWLQDGSARSSPPLRTPDVLESSGPAVRSGLNATFMAFNRGKREGFFLKSVENAPLAKRRKQKLRSATASRRGSPAPANPGRAPVAAKGAPRRANGPLPPS	soluble
MGHHHHHHSHMLKSERKQIILSQLKQDGFVTLENLTVLLSDTSESTIRRDLDELAADGKLKRVHGGAESIHGLKEEIANSQKAIRNVQEKAQLAGYAADLIKEGDVVFLEASTTNELLIPHLSNRQVTVVTNSIHHAVKLVDLGISTRIIGGKVKHSTDASIGSTALEQIRQLNFDCAFIGANGVDANYFTTPDMEEAVIKRTVIANAQKAYVLADASKLGQITYAKVAEVEKVTIITNASEEGLLKELKEKTRVIEV	soluble
MSLTQTAFRSQLLTFNGDPAQSSQAAIYETDGLLIVDDGKVVAAGPYAQLAATLARDAIVHELRDKLIVPGFIDTHIHYPQTDMIASPAPGLLPWLDKYTFPTERQFGDPEHAREVADFFVDELLACGTTSALVYCTVHKQSADALFAASDARDLRMIAGKVLMDRNCPEFLRDTAQSGYDDSAELIDRWHGKGRQMYALTPRFAPTSTEAQLEACGELARRHPDVFVQSHVAENVDEVKWVGELFPGHRSYLDIYDRYGLLRPRAVYGHCIHLDDEDRRRMAETRTVVAHCPTSNFFLGSGLFDFDKAGEYDVPVTLATDVGGGTSFSMLQTMNEAHKVARLSGHHLTATRMFWLATAGAAQALDLADTVGTLAPRTEADFVVLDPQATPLLARRTKRADSLEELLFAFALLGDDRAVYRTYAAGQLVHERGAAPRPAAEGHHHHHH	soluble
MAHHHHHHMAPPQTTLSLDANLRNTLRSLLIERLCSPTQPLPAKQLYDELTNRSRLVEEFHFSKTSRRITRQRLALQFLRRYNVLLHGLFFYSEGTRTWNTTTEFHRLAILGESVLLTEVRTRLLKLFPVMPYAAYVQSLPHMVGEEALAAAFDRYEMQNIVGAKPSNQRSGTPLTRMQKSHMLCAIVAEMYWFTARTKPTDLTHNNALFPPSDVLILHVLSTHLLENLPAELIYNVVEPIVADIKRVWVNEPMSLPSQLRLTPRTVGALSLNAVPVDLRYTAKEDAVMSLQKKHEEAHRRQHALTREPDHSCVKSFMRPSCNYRIFDGPRYQILSSDNRVAPLPLAQERSSLPASAVCTVVDDADSAARAMELAKMAEQW	not soluble
MGGSHHHHHHGMASALAMAPSPSLVQVYTSPAAVAVWEWQDGLGTWHPYSATVCSFIEQQFVQQKGQRFGLGSLAHSIPLGQADPSLAPYIIDLPSWTQFRQDTGTMRAVRRHLFPQHSAPGRGVVWEWLSDDGSWTAYEASVCDYLEQQVARGNQLVDLAPLGYNYTVNYTTHTQTNKTSSFCRSVRRQAGPPYPVTTIIAPPGHTGVACSCHQCLSGSRTGPVSGRYRHSMTNLPAYPVPQHPPHRTASVFGTHQAFAPYNKPSLSGARSAPRLNTTNAWGAAPPSLGSQPLYRSSLSHLGPQHLPPGSSTSGAVSASLPSGPSSSPGSVPATVPMQMPKPSRVQQALAGMTSVLMSAIGLPVCLSRAPQPTSPPASRLASKSHGSVKRLRKMSVKEATPKPEPEPEQVIKNYTEELKVPPDEDCIICMEKLSTASGYSDVTDSKAIGSLAVGHLTKCSHAFHLLCLLAMYCNGNKDGSLQCPSCKTIYGEKTGTQPQGKMEVLRFQMSLPGHEDCGTILIVYSIPHGIQGPEHPNPGKPFTARGFPRQCYLPDNAQGRKVLELLKVAWKRRLIFTVGTSSTTGETDTVVWNEIHHKTEMDRNITGHGYPDPNYLQNVLAELAAQGVTEDCLEQQ	not soluble
MGSDKIHHHHHHSKATGRGSGGMIGGLVASKVDPDIMSNLINNRPTVLVTGTNGKSTTTRMLAAAMRSTYTVATNEGGDNMDAGIISALLAGRNASHVVLEVDELHVPAAIERLKPDALVLLNLSRDQLDRVGEINKIERVLRDAVRSRPEMTVIANCDDVLVTSVAFDAENVIWVGAGTGWQGESATCPRTESRILHDGRHWSAEKTLLDGRTFARPTPSWEVDGDTIHSPSGDLTLDLNLPGQANRGNAAQAIAASTVFNVPVSSALPAVNSVNNVAGRYSTITVGEHKVHLLLAKNPAGWQEALSMVDRTADGLVIVVNGQVADGEDLSWLWDVRFEDFENLSVKASGERGTDLAVRLTYAEIDHELISNPVDAIAACPPGRIEVLANYTAFRDLKKALEKGTEQ	not soluble
MLKHLLPLGTRDEFGRRARTKQHLIAVIQAHFKQRGLAPIATPLLENEAVFDPYQMGNYQLYRLFGNDGRTLVLRPDMTLPVARFISATNVPLPQKFGYVGDIFRVSRQLSGSYNQITQAGVELVGYASLKAEFECLTIANQLSSELIADAVEIELGDAQFAQRVVASLTGDEGEQQAILTALFDKQVPRYTKLIAKYRAQPLYDFLKAWPRLFGRPECIFKELAAAPLPETVQPSLKRLQTVVAWMQQTMPEQVISVDLSSQAPQKYYTGLTFRGYSQAGAGYLFSGGRYDKLLTNFQAEAEPAVGMGLNVDLLTTLATDQQTAYAEQLIYFEPEQWSQAEAYLAKQPHAILSLADDLAGARIEAQRLNAQLIDLTGGMTND	not soluble
MGSDKIHHHHHHMKNTTLSSRKHRSLETKKKLLHSGYIVFINNGFQKTTITQIIKHAETGYGTAYVYFKNKDDLLTVLMEDVMNQFYDIAERSFSPQTKEEARNMIQNQVRAFLQLAEKERAILQVVEEAIGLSKEIRQKWDEIRERFINSITQDITYSQENGLAHPELNKETVARAWFAMNEIFLWTIVKNDKKLELEEIVHTLTEMYTTGLYK	not soluble
AIASFITNPSIFSGLKLSNAQRKVKSDLECIRKSKLFQRKRIVPERRRLGLVACGTEEDRTHQRSQWGGEDSDYFGRDPRKETEFWMEHAKEVLESKEVADAVEAHKKSGSSNLTEEQKAWLEFARSITPKPEDEE	soluble
MGSDKIHHHHHHMGHATEIQVLVVDESAPSRAFIASTLENGGYIVTSVASGEEAVHEVNAAPFDILVTDINLPGMSGLNLLKLLKDSFPDLEVVIVTSNASSFTAIKALRLGAYDFIIKPVDDPAILTNIVGRAVEKQSLTRENRRLMDDMKLKNRELHDALHLMKSANRLCTAISASLDAGEILKRLVEGAVEEVKAKKGYLLLLDRDGSSFSMKVSVGVSRTLAKGFRLRHDQGIAGLVATNNKPLRIDEEVPPPLTHRMLEEDPNGELFTTPGIVTVPLQFKGRVAGVVTLSGRADGRAFTDAEIEFLTTLANHSAIALDTAGAFYKLRKGTS	not soluble
MQMSMLTRLHYFNCVVETGSISKASRIFDVQPSSISRQLTALEKELGVLLLKRTSRNIGLTEAGQTYYKYSQKIVSDLDEARCAVNDLQQKPKGNLKVSMAVGFAECCILPMIPTFTKLYPEINLELEMTGRVVDLVEENVDVAIRTGRLRDSNLIALKLTSNNFLLCASPQYITEHGTPKSPFNLTDFECIRYEYAGWRDWYLMNDKPTKLTIKSGLTVRSINGQKQLILNHAGLALMPKWSVINELDNGTLVQVLEQNIFSPYESMSSTYAIYLKRELISPKVRVFIDFIKDHIDYNS	not soluble
SHSKLRIKKEIEPIVSALTFLSQGQSAALNEKGNFSEIKTALNETSHILEESNMMKEQWIRGVSHDLRNPLMLISGYTSQLEQQYGHGKQTEQIENQIQNMKEMISNLNLSYLLDNQKRHSKFSSLDLAVVLRSVIADILNNYETVILHFDLPTEAVLVKGDATLLERAFRNLLLNSIKHSGSNQIDLTYQLFDNKVIIIIADKGTITAQKIVELNQKSTNYESHGMGTVITKQIIKLHQGETVFSDNHPGLKVTIVLPVTDEF	not soluble

Reference: the DeepSol protein solubility set
